Data published in patent US20070148201A1 (Pieris, published 2007).

Tests used:
type I horse ferritin [1] = target: T1, type I horse ferritin (horse, UniProt P02791 2-175; Q8MIP0 2-182, limits assumed); experiment: ELISA, ferritin coated on plate, mutein titrated from 1000 nM, anti-T7-HRP detection, apparent KD from curve fit
T1 construct: the natural protein is a shell of light and heavy chains
Procedure: (§1) Afterwards, the wells were washed and blocked as described in Example 8.
(§2) Then, a dilution series of the BBP muteins from Example 11 in SA-buffer was prepared in PBST starting from 1000 nM concentration and incubated for 1 h at room temperature. Subsequently, plates were washed again five times, anti-T7 monoclonal antibody-HRP-conjugate was added and incubated for 1 hour at room temperature followed by washing and addition of fluorogenic HRP-substrate QuantaBlu™ as described in Example 8. After 10 minutes at room temperature fluorescence was excited at a wavelength of 320 nm (±12.5 nm) and measured at 430 nm (±17.5 nm) in a GENiosPlus plate reader.
The resulting binding curves were fitted by non-linear least squares regression as described in Example 8 and are depicted in FIG. 8. The values obtained for the apparent dissociation constants of the complexes between the BBP muteins and the prescribed target ferritin are summarized in Table 5.

RNaseB [2] = target: T2, RNaseB (UniProt P61823 27-150); experiment: ELISA, RNaseB coated on plate, anti-T7-HRP detection
T2 construct: also called unrelated control protein RNaseB
T2 sequence (looked up): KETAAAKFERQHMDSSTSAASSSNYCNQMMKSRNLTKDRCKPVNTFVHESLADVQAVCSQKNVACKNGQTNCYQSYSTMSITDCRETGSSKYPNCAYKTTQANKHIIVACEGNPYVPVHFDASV
Procedure: as §1, §2

type I horse ferritin [3] = target: T1, type I horse ferritin; experiment: high-throughput ELISA screening, crude cell extract, ferritin or aldolase coated on plate, anti-T7-HRP detection; Fer-N21 is one of the clones taken on from these 14
Procedure: (§3) For the detection of binding, these cell extracts were tested for their reactivity on the prescribed target type I horse ferri tin as well as the unrelated control protein aldolase in ELISA experiments. Therefore, wells of black Fluotrac 600 ELISA plates (Greiner; 384 well) were coated overnight with 20 μl of a solution of ferritin (Sigma) or aldolase (Roche) at 4° C., each at a concentration of 20 μg/ml in PBS. Plates were washed five times with 100 μl PBST/0.05 per well with an automated ELISA plate washer (Molecular Devices) leaving a residual volume of 10 μl of the washing buffer in each well after the last washing step. Residual binding sites were blocked by incubation with 100 μl PBST/0.05 containing 2% w/v BSA for 2 h at room temperature. Afterwards, plates were again washed five times as described above.
(§4) For complex formation between the BBP muteins and the immobilized proteins, the wells were incubated with 10 μl of the blocked cell extract from above for 1 hour at room temperature. […] After 60 minutes at room temperature fluorescence was excited at a wavelength of 320 nm (±12.5 nm) and measured at 430 nm (±17.5 nm) in a GENiosPlus plate reader (Tecan).

type I horse ferritin [4] = target: T1, type I horse ferritin; experiment: high-throughput ELISA screening, crude cell extract, ferritin or aldolase coated on plate, anti-T7-HRP detection; Fer-P4 is one of the clones taken on from these 14
Procedure: as §3, §4

RNaseB [5] = target: T2, RNaseB; experiment: ELISA: RNaseB coated on the plate as control, BBP mutein titrated 0-1000 nM, detected with anti-T7 antibody-HRP, fluorescence (Example 12)
Procedure: as §1, §2

type I horse ferritin [6] = target: T1, type I horse ferritin; experiment: high-throughput ELISA screening, crude cell extract, ferritin or aldolase coated on plate, anti-T7-HRP detection; Fer-D24 is one of the clones taken on from these 14
Procedure: as §3, §4

[7] = target: T3, extracellular domain of human CD47 (amino acids 1 to 119 of the mature protein, Cys15 to Ala) with Strep-tag … (human, UniProt Q08722 19-139); experiment: ELISA, CD47 coated on plate, mutein titrated from 2000 nM, anti-T7-HRP detection, apparent KD from curve fit
T3 construct: Produced in the periplasm of E. coli JM83, purified by the Strep-tag II; 1-119 counts on the mature CD47; also called recombinant CD47
Procedure: For the detection of binding in an ELISA the wells of a black Fluotrac 600 microtiter plate (Greiner; 384 well) were filled each with 20 μl of a solution of the intended recombinant protein target CD47 (produced as described in Example 2) or the unrelated control protein BSA both at a concentration of 50 μg/ml in PBS and were incubated for 1 h at ambient temperature. After washing five times with 100 μl PBST/0.05 per well employing an automated ELISA plate washer, the wells were filled with 100 μl PBST/0.05 3% w/v non-fat dry milk powder (Vitalia), in order to saturate unspecific binding sites and incubated for one hour at room temperature. After blocking, the microtiter plate was washed two times with 100 μl PBST/0.05 as described above.
Then a dilution series of the muteins in SA-buffer from Example 7 was prepared in PBST starting from 2000 nM concentration and incubated for 1 h at room temperature. Subsequently, plates were washed again five times like above and 20 μl of an anti-T7 monoclonal antibody-HRP-conjugate, diluted 1:1000 in PBST, was added to each well and incubated for 1 hour at room temperature. […] After 10 minutes at room temperature fluorescence was excited at a wavelength of 320 nm (±12.5 nm) and measured at 430 nm (±17.5 nm) in a GENiosPlus plate reader. […]

type I horse ferritin [8] = target: T1, type I horse ferritin; experiment: high-throughput ELISA screening, crude cell extract, ferritin or aldolase coated on plate, anti-T7-HRP detection; Fer-O20 is one of the clones taken on from these 14
Procedure: as §3, §4

T1 sequence (P02791 2-175 limits assumed, chain 1 of 2): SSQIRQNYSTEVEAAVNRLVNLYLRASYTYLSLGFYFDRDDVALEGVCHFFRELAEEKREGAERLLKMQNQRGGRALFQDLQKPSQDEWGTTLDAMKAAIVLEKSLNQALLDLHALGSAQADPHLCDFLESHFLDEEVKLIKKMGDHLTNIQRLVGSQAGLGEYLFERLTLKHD
T1 sequence (Q8MIP0 2-182 limits assumed, chain 2 of 2): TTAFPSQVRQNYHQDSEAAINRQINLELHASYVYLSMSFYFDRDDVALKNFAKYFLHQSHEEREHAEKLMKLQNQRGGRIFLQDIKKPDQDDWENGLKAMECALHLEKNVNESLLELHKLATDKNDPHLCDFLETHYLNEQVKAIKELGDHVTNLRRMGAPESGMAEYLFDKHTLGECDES
T3 sequence (Q08722 other isoform, or with tags, fused parts or gaps limits assumed): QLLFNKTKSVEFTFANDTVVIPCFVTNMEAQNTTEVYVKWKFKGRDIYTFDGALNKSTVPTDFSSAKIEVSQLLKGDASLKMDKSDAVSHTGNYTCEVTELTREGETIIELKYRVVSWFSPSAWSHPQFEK

B1: BBP mutein Fer-N21 (designed binder)
chain: DVYHDGACPEVKPVDNFDWSQYHGKWWEVAKYPSNRGSKGKCGWAEYTPEGKSVKVSRYDVIPRLEAFMEGTAYPVGDSKIGKIYHSRTSKGKTKKTVFNVLSTDNKNYIIGYSCIYNERYKGHYDHVWVLSRSMVLTGEAKTAVENYLIGSPVVDSQKLVYSDFSEAACKVNN
notes: Tested as expressed from pBBP47: C-terminal T7 tag followed by Strep-tag II
- Kd (type I horse ferritin [1]): 29 nM
- binding result (RNaseB [2]): no binding (tested: dilution series starting from 1000 nM)
- signal-to-control ratio (ferritin against aldolase) (type I horse ferritin [3]): > 5

B2: BBP mutein Fer-P4 (designed binder)
chain: DVYHDGACPEVKPVDNFDWSQYHGKWWEVAKYPSKGGEKGKCGWAEYTPEGKSVKVSRYDVILSSEPFMEGTAYPVGDSKIGKIYHSRTKKGETKKTVFNVLSTDNKNYIIGYSCGYCECRKGHADHVWVLSRSMVLTGEAKTAVENYLIGSPVVDSQKLVYSDFSEAACKVNN
notes: as for B1
- Kd (type I horse ferritin [1]): 31 nM
- signal-to-control ratio (ferritin against aldolase) (type I horse ferritin [4]): > 5
- binding result (RNaseB [5]): no binding (tested: 1000 nM)

B3: BBP mutein Fer-D24 (designed binder)
chain: DVYHDGACPEVKPVDNFDWSQYHGKWWEVAKYPSKKGKQGKCGWAEYTPEGKSVKVSRYDVIPCLESFMEGTAYPVGDSKIGKIYHSRTKPGRTKKTVFNVPSTDNKNYIIGYSCVYPEGRKGHRDHVWVLSRSMVLTGEAKTAVENYLIGSPVVDSQKLVYSDFSEAACKVNN
notes: Tested only in the screening ELISA (crude extract, pBBP47: C-terminal T7 tag and Strep-tag II); KD not given
- signal-to-control ratio (ferritin against aldolase) (type I horse ferritin [6]): > 5

B4: BBP mutein CD47-G6 (designed binder)
chain: DVYHDGACPEVKPVDNFDWSQYHGKWWEVAKYPNRREKFGKCGWAEYTPEGKSVKVSNYHVIRWGERFIEGTAYPVGDSKIGKIYHSLTLPGYTKENVFNVLSTDNKNYIIGYYCKYLERLKGHADFVWVLSRSMVLTGEAKTAVENYLIGSPVVDSQKLVYSDFSEAACKVNN
- Kd [7]: 33 nM

B5: BBP mutein Fer-O20 (designed binder)
chain: DVYHDGACPEVKPVDNFDWSQYHGKWWEVAKCPSGKGRAGKCGWAEFTPEGKSVKVSRYDVIPAPELFMEGTAYPVGDPKIGKIYHSRTNKGLTKKTVFNVLSTDNKNYIIGYSCKYGEDQKGHKDHVWVLSRSMVLTGEAKTAVENYLIGSPVVDSQKLVYSDFSEAACKVNN
notes: as for B1
- Kd (type I horse ferritin [1]): 49 nM
- binding result (RNaseB [2]): no binding (tested: dilution series starting from 1000 nM)
- signal-to-control ratio (ferritin against aldolase) (type I horse ferritin [8]): > 5
